The results in this text go back to article PMC2673435.

Common to all, as to assay: fluorescence polarization
On the technique in general: Fluorescence polarisation rises when a labelled molecule tumbles more slowly, as on binding a larger partner.

Data set [1] concerns the target RPA•2(WF) (Saccharomyces cerevisiae, UniProt P22336;P26754;P26755 1-621;1-273;1-122, W101A;F143A).
Data set [2] concerns the target RPA•2(ERK) (Saccharomyces cerevisiae, UniProt P22336;P26754;P26755 1-621;1-273;1-122, I96L;E97A;R99A;K100A).
The target of data set [3] is RPA•2(MM1) (Saccharomyces cerevisiae, UniProt P22336;P26754;P26755 1-621;1-273;1-122, D80A;T82A;I96L;E97A;R99A;K100A;K146A;K147A).
Sequence of RPA•2(MM1) (P22336 whole entry, chain 1 of 3): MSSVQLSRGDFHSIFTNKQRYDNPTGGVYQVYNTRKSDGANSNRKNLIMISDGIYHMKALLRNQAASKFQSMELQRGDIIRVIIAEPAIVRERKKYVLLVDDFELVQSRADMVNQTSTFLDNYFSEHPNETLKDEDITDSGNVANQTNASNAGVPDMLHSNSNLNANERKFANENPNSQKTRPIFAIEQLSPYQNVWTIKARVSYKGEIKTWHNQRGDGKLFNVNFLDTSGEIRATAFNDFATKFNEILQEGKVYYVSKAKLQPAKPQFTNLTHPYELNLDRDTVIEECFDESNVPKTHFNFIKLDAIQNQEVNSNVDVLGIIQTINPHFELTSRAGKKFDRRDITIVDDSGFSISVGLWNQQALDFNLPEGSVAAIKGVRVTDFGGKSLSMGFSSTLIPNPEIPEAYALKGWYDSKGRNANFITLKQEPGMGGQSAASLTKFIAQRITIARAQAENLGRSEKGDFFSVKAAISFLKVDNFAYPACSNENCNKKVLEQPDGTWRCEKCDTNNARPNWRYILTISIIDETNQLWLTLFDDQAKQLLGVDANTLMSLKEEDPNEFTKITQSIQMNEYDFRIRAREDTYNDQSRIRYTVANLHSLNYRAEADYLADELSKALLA
Sequence of RPA•2(MM1) (P26754 whole entry D80A/T82A/I96L/E97A/R99A/K100A/K146A/K147A, chain 2 of 3): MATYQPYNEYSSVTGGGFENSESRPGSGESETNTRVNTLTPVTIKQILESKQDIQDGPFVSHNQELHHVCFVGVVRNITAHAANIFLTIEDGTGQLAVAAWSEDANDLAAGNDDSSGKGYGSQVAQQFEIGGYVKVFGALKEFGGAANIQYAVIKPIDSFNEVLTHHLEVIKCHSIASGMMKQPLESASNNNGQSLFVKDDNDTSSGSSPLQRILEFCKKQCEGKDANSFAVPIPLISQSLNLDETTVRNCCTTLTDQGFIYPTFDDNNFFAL
Sequence of RPA•2(MM1) (P26755 whole entry, chain 3 of 3): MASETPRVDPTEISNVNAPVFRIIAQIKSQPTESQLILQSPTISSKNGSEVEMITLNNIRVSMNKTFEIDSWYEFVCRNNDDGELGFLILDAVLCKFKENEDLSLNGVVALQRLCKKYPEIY
For data set [4], the target named is RPA•2(MM2) (Saccharomyces cerevisiae, UniProt P22336;P26754;P26755 1-621;1-273;1-122, D80A;T82A;E103A;D104A;D158A;E162A).
Sequence of RPA•2(MM2) (P22336 whole entry, chain 1 of 3): as the sequence (P22336 whole entry, chain 1 of 3) above
Sequence of RPA•2(MM2) (P26754 whole entry D80A/T82A/E103A/D104A/D158A/E162A, chain 2 of 3): as the sequence (P26754 whole entry D80A/T82A/I96L/E97A/R99A/K100A/K146A/K147A, chain 2 of 3) above, with L96I, A97E, A99R, A100K, E103A, D104A, A146K, A147K, D158A, E162A counted along it
Sequence of RPA•2(MM2) (P26755 whole entry, chain 3 of 3): as the sequence (P26755 whole entry, chain 3 of 3) above
The target in data set [5] is RPA•2(DT) (Saccharomyces cerevisiae, UniProt P22336;P26754;P26755 1-621;1-273;1-122, D80A;T82A).
Sequence of RPA•2(DT) (P22336 whole entry, chain 1 of 3): as the sequence (P22336 whole entry, chain 1 of 3) above
Sequence of RPA•2(DT) (P26754 whole entry D80A/T82A, chain 2 of 3): as the sequence (P26754 whole entry D80A/T82A/I96L/E97A/R99A/K100A/K146A/K147A, chain 2 of 3) above, with L96I, A97E, A99R, A100K, A146K, A147K counted along it
Sequence of RPA•2(DT) (P26755 whole entry, chain 3 of 3): as the sequence (P26755 whole entry, chain 3 of 3) above

Sequence of RPA•2(ERK) (P22336 whole entry, chain 1 of 3): as the sequence (P22336 whole entry, chain 1 of 3) above
Sequence of RPA•2(ERK) (P26754 whole entry I96L/E97A/R99A/K100A, chain 2 of 3): as the sequence (P26754 whole entry D80A/T82A/I96L/E97A/R99A/K100A/K146A/K147A, chain 2 of 3) above, with A80D, A82T, A146K, A147K counted along it
Sequence of RPA•2(ERK) (P26755 whole entry, chain 3 of 3): as the sequence (P26755 whole entry, chain 3 of 3) above
Sequence of RPA•2(WF) (P22336 whole entry, chain 1 of 3): as the sequence (P22336 whole entry, chain 1 of 3) above
Sequence of RPA•2(WF) (P26754 whole entry W101A/F143A, chain 2 of 3): as the sequence (P26754 whole entry D80A/T82A/I96L/E97A/R99A/K100A/K146A/K147A, chain 2 of 3) above, with A80D, A82T, L96I, A97E, A99R, A100K, W101A, F143A, A146K, A147K counted along it
Sequence of RPA•2(WF) (P26755 whole entry, chain 3 of 3): as the sequence (P26755 whole entry, chain 3 of 3) above

Molecule TTTTTTTTTTTTTTTTTTTTTTTTTTTTTT (ssDNA) [dT30] showed a Ka in data set [1] of 3.85e+07 M⁻¹. The binding result in data set [2], in data set [3], in data set [4] and in data set [5] was “binds” each time.
